Measured values from patent publication US20250188151A1, “C-JUN ANTAGONIST PEPTIDES” (The University of Bath, priority 2022, published 2025).

Target: T1, cJun bZIP/TRE DNA interaction (transcriptional block of TRE-mDHFR) (Homo sapiens, UniProt P05412, S292Y)
T1 construct: expressed in transfected cells; host or cells: E. coli BL21 Gold carrying pES300d-TRE-mDHFR and pES230d-cJun bZIP
Assay: Transcription Block Survival (TBS) assay: colony counting and growth competition in E. coli
Assay type: cell-based
Description: Library Construction and TBS Assay: Library inserts were produced using PCR fill-in reactions from synthesised primers (Sigma) with degenerate codons at the desired positions to produce the correct residue options. The library was subcloned using SacI and AscI sites into the pET24a plasmid containing A-FosW. The primers used were cJun-Hinge-Lib-F: 5′-[…] TATGCC-3′ (SEQ ID NO: 49) and cJun-Hinge-Lib_R: 5′-[…] GTTC-3′ (SEQ ID NO: 50). The library DNA was transformed into NEB 10-beta electrocompetent E. coli cells. The following equation was utilised to determine library coverage by the number of single colonies: E=100×(1−1/n)^m where E is the percentage of the library missing, m is the number of colonies collected and n is the library size. […] Library DNA quality was assessed by sequencing both the DNA pool and a number of single colonies to show degenerate codons in the correct positions in the pool and to show a diversity of library members from single colonies. The pool of library DNA was transformed into BL21 Gold cells already containing pES300d-TRE-mDHFR and pES230d-cJun bZIP.
Selective pressure is applied by growing the bacteria in M9 minimal media with TMP (2-4 μM) alongside ampicillin, kanamycin and chloramphenicol to maintain the required plasmids, and IPTG (1 mM) to induce protein expression. The library transformants were first plated out onto selective agar plates (2 μM TMP) and grown at 37° C. for 72-96 h. Optimisation experiments (FIG. 5) indicate that 4 μM TMP is optimum for selection however a lower stringency is used initially before selection is increased in later steps. Colonies from this first round of selection were pooled and serially grown in liquid culture at starting OD600 of 0.05 and grown at 37° C. with shaking at 200 rpm until the OD600 reached 0.6. TMP concentration was 2 μM in the first liquid culture passage before it was increased to the optimum 4 μM in subsequent passages. […] At each passage step, a sample of the culture was plated on LB agar (supplemented with antibiotics to maintain plasmids) to select and sequence individual colonies, and a DNA pool was also sequenced. This allows the occurrence of library members to be monitored as winner sequences are selected for. Assay Validation experiments utilised a modified assay methodology whereby overnight cultures from glycerol stocks of the Control Strains (Table 2) were diluted to OD600=0.5 and 50 μL was plated on a selective M9 minimal medium agar plate.
Transcription block survival (TBS) is an intracellular assay that utilises cell survival as a readout. […] This enzyme is absolutely essential for survival since it is required for the production of purines needed for DNA and amino acid synthesis. […]. We produced a mDHFR gene (FIGS. 2 and 3) by rational design to introduce 15 TRE sites into the coding DNA sequence to allow a robust cJun transcriptional block whilst minimising alteration to the expressed protein (TRE-mDHFR). In particular, the resulting TRE-mDHFR construct was produced via two silent and thirteen conservative mutations. […] The accessible surface areas of all other amino acid residues were calculated using the ‘Accessible Surface Area and Accessibility Calculation for Protein’ tool (http://cib.cf.ocha.ac.jp/bitool/ASA/). […]

T1 sequence (P05412 with tags, fused parts or gaps S292Y): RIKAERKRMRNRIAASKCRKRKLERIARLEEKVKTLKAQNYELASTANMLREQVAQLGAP

B1: HingeW (peptide)
peptide: MASLEQRAEELARENEELEKEAEELVVEEDVLEEEIEQLEERNYALRKEIEDLQKQLEKLGAPHHHHHH
notes: Recombinant, capped (MAS at the N-terminus, GAP at the C-terminus) and C-terminally 6xHis-tagged, 69 amino acids; also called peptide 1
direct competition in liquid culture, sequence observed by DNA sequencing (equal numbers of TBS cells with A-FosW or HingeW, after three passages): only HingeW was observed
effect on TRE-mDHFR transcriptional block / colony numbers (vs transcriptionally blocked cells (TRE-mDHFR + cJun bZIP)): restore cell survival
